Measurements: article PMC3906126 (Biochemistry, 2013)

T1: WW1 domain of WWOX (residues 16–50) (human, UniProt Q9NZC7 16-50)
T1 chain (looked up): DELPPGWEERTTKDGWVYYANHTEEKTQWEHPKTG

T2: WW1–WW2 tandem module of WWOX (residues 16–91) (human, UniProt Q9NZC7 16-91)
T2 sequence (looked up): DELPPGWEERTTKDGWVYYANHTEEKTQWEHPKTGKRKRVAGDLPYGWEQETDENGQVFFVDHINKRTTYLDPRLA


What was measured:
Test in all cases: ITC
[1] = target: T1, WW1 domain of WWOX (residues 16–50)
[2] = target: WW2W domain of WWOX (WW2 domain, residues 57–91, with the Y85W substitution) (human, UniProt Q9NZC7 57-91, Y85W)
Chain of WW2W domain of WWOX (WW2 domain, residues 57–91, with the Y85W substitution) (Q9NZC7 57-91 Y85W): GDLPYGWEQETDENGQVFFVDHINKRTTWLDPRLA

[3] = target: T2, WW1–WW2 tandem module of WWOX (residues …)

Kd [1] [µM] | dH [1] [kcal/mol] | Kd [2] [µM] | dH [2] [kcal/mol] | Kd [3] [µM] | dH [3] [kcal/mol] | Binder
362 | -3.66 | 620 | -8.08 | 175 | -4.88 | GHSPPPAYTPMS [ErbB4_PY2 peptide (12-mer spanning the PY2 PPXY motif of the ICD of ErbB4)]
383 | -6.88 | 680 | -4.74 | 170 | -7.25 | FNIPPPIYTSRA [ErbB4_PY1 peptide (12-mer spanning the PY1 PPXY motif of the ICD of ErbB4)]
